From patent US20050261196A1 (UNIVERSITY OF CHICAGO, published 2005)
Where no end group is shown, it is not given here. [ ]: non-standard residue; d: D form.

Tests used:
D-PIK = test system: T1, D-PIK
T1 sequence: RKKYKYRRK

D-PIK(reversed) = test system: T2, D-PIK(reversed)
T2 sequence: KRRYKYKKR

D-PIK(int.) = test system: T3, D-PIK(int.)
T3 sequence: RKKYKYRRK

[1] = biological target: myosin light chain kinase (215 kDa MLCK expressed by Caco-2 cells) (UniProt Q15746 1-1914, limits assumed); assay: cell-based or functional assay
Chain of myosin light chain kinase (215 kDa MLCK expressed by Caco-2 cells) (Q15746 whole entry): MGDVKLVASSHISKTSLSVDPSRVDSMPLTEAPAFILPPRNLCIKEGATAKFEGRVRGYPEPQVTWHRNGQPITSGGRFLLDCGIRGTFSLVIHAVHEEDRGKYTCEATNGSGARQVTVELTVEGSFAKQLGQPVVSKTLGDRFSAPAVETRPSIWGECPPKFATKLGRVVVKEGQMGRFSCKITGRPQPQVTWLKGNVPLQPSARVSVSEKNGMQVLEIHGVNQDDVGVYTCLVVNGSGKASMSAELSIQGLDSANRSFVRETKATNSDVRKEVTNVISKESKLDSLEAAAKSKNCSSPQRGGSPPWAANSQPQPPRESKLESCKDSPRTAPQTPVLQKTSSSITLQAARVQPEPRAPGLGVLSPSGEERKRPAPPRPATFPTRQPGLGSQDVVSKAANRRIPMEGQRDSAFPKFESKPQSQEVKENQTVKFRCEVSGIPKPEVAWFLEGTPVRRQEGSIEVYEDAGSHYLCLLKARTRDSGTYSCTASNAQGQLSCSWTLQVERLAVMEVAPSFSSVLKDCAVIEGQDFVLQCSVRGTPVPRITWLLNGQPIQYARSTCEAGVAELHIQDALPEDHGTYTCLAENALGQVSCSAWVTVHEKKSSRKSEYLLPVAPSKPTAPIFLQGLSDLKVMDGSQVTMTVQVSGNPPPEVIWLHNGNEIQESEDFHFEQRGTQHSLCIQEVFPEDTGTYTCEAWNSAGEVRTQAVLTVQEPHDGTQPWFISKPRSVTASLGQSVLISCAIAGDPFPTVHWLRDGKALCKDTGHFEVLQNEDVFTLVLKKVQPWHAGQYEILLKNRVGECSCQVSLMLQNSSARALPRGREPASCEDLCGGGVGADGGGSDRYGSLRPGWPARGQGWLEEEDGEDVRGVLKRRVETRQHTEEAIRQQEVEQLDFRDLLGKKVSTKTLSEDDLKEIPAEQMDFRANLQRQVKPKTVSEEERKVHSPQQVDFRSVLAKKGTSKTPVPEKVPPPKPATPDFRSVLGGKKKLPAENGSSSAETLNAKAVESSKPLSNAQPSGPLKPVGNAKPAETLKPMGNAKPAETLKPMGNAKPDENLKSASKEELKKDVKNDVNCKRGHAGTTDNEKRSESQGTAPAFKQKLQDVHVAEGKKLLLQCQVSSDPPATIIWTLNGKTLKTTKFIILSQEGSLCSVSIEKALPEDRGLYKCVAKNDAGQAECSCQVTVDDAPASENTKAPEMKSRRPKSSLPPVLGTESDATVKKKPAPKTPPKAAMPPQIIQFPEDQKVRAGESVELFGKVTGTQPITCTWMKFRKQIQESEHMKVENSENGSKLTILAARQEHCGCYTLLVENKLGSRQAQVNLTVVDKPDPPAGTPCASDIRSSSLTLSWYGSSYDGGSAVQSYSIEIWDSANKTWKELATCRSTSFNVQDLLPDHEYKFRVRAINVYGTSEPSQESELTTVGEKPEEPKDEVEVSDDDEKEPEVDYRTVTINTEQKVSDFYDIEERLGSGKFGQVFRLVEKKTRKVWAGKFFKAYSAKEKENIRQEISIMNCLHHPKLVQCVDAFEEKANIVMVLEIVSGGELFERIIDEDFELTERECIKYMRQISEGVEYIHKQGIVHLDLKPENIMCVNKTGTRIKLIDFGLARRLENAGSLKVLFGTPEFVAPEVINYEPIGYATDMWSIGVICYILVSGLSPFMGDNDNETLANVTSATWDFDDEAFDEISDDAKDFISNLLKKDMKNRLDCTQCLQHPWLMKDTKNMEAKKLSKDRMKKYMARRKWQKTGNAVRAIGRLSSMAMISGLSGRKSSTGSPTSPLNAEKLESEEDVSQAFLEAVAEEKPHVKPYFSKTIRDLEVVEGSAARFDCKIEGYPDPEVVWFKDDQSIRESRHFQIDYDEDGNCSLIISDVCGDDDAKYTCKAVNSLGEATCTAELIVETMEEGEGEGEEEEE

## Calcium/calmodulin dependent protein kinase II (CaMPKII)
D-PIK
  CaMPKII activity (phosphorylation of plate-bound pseudo-substrate peptide, anti-phosphoserine ELISA): Neither D-PIK nor D-PIK(reversed) nor D-PIK(int) demonstrated striking inhibitory effects toward PKA or CaMPKII at concentrations up to 5 mM
D-PIK(reversed)
  CaMPKII activity (phosphorylation of plate-bound pseudo-substrate peptide, anti-phosphoserine ELISA): Neither D-PIK nor D-PIK(reversed) nor D-PIK(int) demonstrated striking inhibitory effects toward PKA or CaMPKII at concentrations up to 5 mM
D-PIK(int.)
  CaMPKII activity (phosphorylation of plate-bound pseudo-substrate peptide, anti-phosphoserine ELISA): Neither D-PIK nor D-PIK(reversed) nor D-PIK(int) demonstrated striking inhibitory effects toward PKA or CaMPKII at concentrations up to 5 mM

B1: PIK (SEQ ID NO: 12) (peptide)
peptide: RKKYKYRRK-NH2
modifications: not fully specified; printed as Arg-Lys-Lys-Tyr-Lys-Tyr-Arg-Arg-Lys
[1]
  Δ TER (elevation in transepithelial resistance of Caco-2 monolayers, 500 µM peptide, one hour): 45%

B2: D-PIK(reversed) (peptide)
peptide: [dK][dR][dR][dY][dK][dY][dK][dK][dR]-NH2
[1]
  Δ TER (elevation in transepithelial resistance of Caco-2 monolayers, 500 µM peptide, one hour): 50%

B3: D-PIK (peptide)
peptide: [dR][dK][dK][dY][dK][dY][dR][dR][dK]-NH2
[1]
  Δ TER (elevation in transepithelial resistance of Caco-2 monolayers, 500 µM peptide, one hour): 41%

B4: D-PIK(int.) (peptide)
peptide: RKK[dY][dK][dY]RRK-NH2
[1]
  Δ TER (elevation in transepithelial resistance of Caco-2 monolayers, 500 µM peptide, one hour): 47%
